Data from patent publication US20230287088A1.
Like-named read-outs stand apart in the source and are kept apart here.

How the values were obtained:
[1] = biological target: T1, SARS-CoV-2 spike protein (wild-type) on VSV pseudovirus (SARS-CoV-2), P0DTC2
[2] = biological target: T1, SARS-CoV-2 spike protein (wild-type) on …; remark: listed apart in the source
[3] = biological target: T1, SARS-CoV-2 spike protein (wild-type) on …; remark: listed apart in the source
[4] = biological target: T1, SARS-CoV-2 spike protein (wild-type) on …; remark: listed apart in the source
[5] = biological target: T1, SARS-CoV-2 spike protein (wild-type) on …; remark: listed apart in the source
[6] = biological target: T1, SARS-CoV-2 spike protein (wild-type) on …; experiment: cell-based or functional assay
[7] = biological target: T1, SARS-CoV-2 spike protein (wild-type) on …; remark: listed apart in the source
[8] = biological target: T1, SARS-CoV-2 spike protein (wild-type) on …; remark: listed apart in the source

B1: P043.A.00047.H08 (protein sample ID 447) (antibody, V domains shown)
VH: QSLEESGGDLVKPGASLTLTCTASGFSFSSDGMCWVRQAPGKGLEWIACIAAGSSGSTYYATWAQGRFTISKSSSTTVTLQMTSLTAADTATYFCAGEDYTGNNYYALWGPGTLVTVSS
VL: AIDMTQTPSPVSAVVGDTVTINCQASENIYSFLAWYQQKPGQPPKLLIYFASKLASGVPSRFKGSGSGTQFTLTISDVHSDDAAIYYCQQTGTYSDADNTFGGGTEVVVK
For B1, the IC50, pVNT (luciferase RLU), RiboMab in mouse serum, biological replicate 1 [1] was 740 ng/mL, the IC50, pVNT (luciferase RLU), RiboMab in mouse serum, biological replicate 2 [1] was 424 ng/mL and the IC90, pVNT (luciferase RLU), RiboMab in mouse serum, biological replicate 1 [1] was 6390 ng/mL. For the same binder, the IC90, pVNT (luciferase RLU), RiboMab in mouse serum, biological replicate 2 [1] was 4530 ng/mL, the IC50 (pVNT, GFP-positive infected cells) [2] was 3.9 µg/ml and the IC90 (pVNT, GFP-positive infected cells) [2] was 18.2 µg/ml. The IC50, pVNT (luciferase RLU, VERO 76 cells), RiboMab in HEK 293T/17 supernatant [3] was 169 ng/mL and the IC90, pVNT (luciferase RLU, VERO 76 cells), RiboMab in HEK 293T/17 supernatant [3] was 7240 ng/mL.

B2: P043.A.00092.C12 (antibody)
heavy chain: QEELKETGGGLVQPGGSLTLSCKASGFDFSSYYMSWVRQAPGKGLEWIGVIYASKGSTDYASWVNGRFTISSDNAQNTVDLQMNSLTAADTATYYCARSKRFYTYGYAGYAYAHYYYGMDLWGPGTLVTVSS
light chain: AIQMTQSPSSLAASVGDTVTITCKASEDIGYGLNWYQQKLGIAPKLLIYGADTLESGVPSRFSGSGSETDYTLTISSVQAEDAGIYYCQQGYSTPLTFGAGTKVEIK
B2 showed an IC50 (pVNT, GFP-positive infected cells) [2] of 0.31 µg/ml and an IC90 (pVNT, GFP-positive infected cells) [2] of 3.79 µg/ml.

B3: P043.A.00017.E04 (antibody)
heavy chain: QSVEESGGRLVTPGTPLTLTCTVSGFSLNNYAMNWVRQAPGKGLEWIGIISSSGNTYYANWAKGRFTISKTSTTVDLKITSPTTEDTATYFCARDSYPGYSPYYGMDPWGPGTLVTVSS
light chain: AIQMTQSPSSLAASVGDTVTITCKASEDIAYGLNWYQQKLGITPKLLIYGANTLESGVPSRFSGSGSETHYTLTISSVQAEDAGIYYCQQGYNTPPTFGAGTKVEIK
B3 showed an IC50 (pVNT, GFP-positive infected cells) [2] of 1.19 µg/ml and an IC90 (pVNT, GFP-positive infected cells) [2] of 5.35 µg/ml.

B4: P043.A.00023.E05 (antibody)
heavy chain: QSLEESGGRLVTPGTPLTLTCTVSGFSLSSYAMSWVRQAPGKGLEWIGIISSSGSTYYASWAKGRFTISKTSTTVDLKITSPTTEDTATYFCARDASSRGYYYYYGMDPWGPGTLVTVSS
light chain: AIQMTQSPSSLAASVGDTVTITCKASEDIGYGLNWYQQKLGIAPKLLIYGANTLESGVPSRFSGSGSETDYTLTISSVQAEDAGIYYCQQGYSTPLTFGAGTKVEIK
With B4 the IC50 (pVNT, GFP-positive infected cells) [2] was 3.75 µg/ml and the IC90 (pVNT, GFP-positive infected cells) [2] was 16.6 µg/ml.

B5: P043.A.00024.C11 (protein sample ID 451) (antibody, V domains shown)
VH: QSVEESGGRLVTPGTPLTLTCTVSGFSLSSYAMSWVRQAPGKGLEWIGIISSSGTTYYASWAKGPFTISKTSTTVDLKITSPTTEDTATYFCARGGAGYGYAHYYGMDPWGPGTLVTVSS
VL: AIQMTQSPSSLAASVGDTVTITCKASEDIGYGLNWYQQKLGIAPKLLIYGANTLESGVPSRFSGSGSETDYTLTISSVQAEDAGIYYCQQGYSTPLTFGAGTKVEIK
B5 gave an IC50 (pVNT, GFP-positive infected cells) [2] of 4.74 µg/ml, an IC90 (pVNT, GFP-positive infected cells) [2] of 20.6 µg/ml and an IC50, pVNT (luciferase RLU, VERO 76 cells), RiboMab in HEK 293T/17 supernatant [3] of 406 ng/mL. It also gave an IC90, pVNT (luciferase RLU, VERO 76 cells), RiboMab in HEK 293T/17 supernatant [3] of 3810 ng/mL.

B6: P043.A.00097.B02 (antibody)
heavy chain: QELVESGGGLVQAGESLKLSCKASGIDFSSYGISWVRQAPGKGLEWIAYIYPGFGITNYANSVKGRFTISSDNAQNTVFLQMTSLTASDTATYFCTRAYASSSGYYIHYFNLWGPGTLVTVSS
light chain: AIQMTQSPSSLAASVGDTVTITCKASEDIGYGLNWYQQKLGIAPKLLIYGANTLESGVPSRFSGSGSETDYTLTISSVQAEDAGIYYCQQAYSTPLTFGAGTKVEIK
For B6, the IC50 (pVNT, GFP-positive infected cells) [2] was 7.84 µg/ml and the IC90 (pVNT, GFP-positive infected cells) [2] was 24.2 µg/ml.

B7: P043.A.00095.D06 (protein sample ID 470) (antibody, V domains shown)
VH: QEQLEESGGDLVKPEGSLTLTCTASGFSFSSNYWICWVRQAPGKGLEWIGCIYIGSGDTYYASWAKGRFTISKTSSTTVTLQMTSLTAADTATYFCARSYTPGSYYNMNLWGPGTLVTVSS
VL: DVVMTQTPSSVSAAVGGTVTINCQASQQISNELSWYQQKSGQPPKLLIYDASDLASGVPSRFKGSGSGTEFTLTISDLESADAATYYCQSTGGASSDGNAFGGGTEVVVK
Work on B7 yielded an IC50 (read off the curve), Mouse #1 [4] of 0.05 µg/mL, an IC50 (read off the curve), Mouse #2 [4] of 0.05 µg/mL and an IC50, pVNT (luciferase RLU), RiboMab in mouse serum, biological replicate 1 [1] of 53.6 ng/mL. It also gave an IC50, pVNT (luciferase RLU), RiboMab in mouse serum, biological replicate 2 [1] of 51.8 ng/mL, an IC90, pVNT (luciferase RLU), RiboMab in mouse serum, biological replicate 1 [1] of 310 ng/mL and an IC90, pVNT (luciferase RLU), RiboMab in mouse serum, biological replicate 2 [1] of 284 ng/mL. The IC50 (pVNT, GFP-positive infected cells) [2] was 0.28 µg/ml, the IC90 (pVNT, GFP-positive infected cells) [2] was 2.28 µg/ml and the IC50 (read off the curve) [5] was 0.2 µg/mL. The IC50, pVNT (luciferase RLU, VERO 76 cells), RiboMab in HEK 293T/17 supernatant [3] was 189 ng/mL, the IC90, pVNT (luciferase), RiboMab 470 in HEK 293T/17 supernatant [6] was 449 ng/mL and the IC90, pVNT (luciferase), RiboMab 470 in mouse serum [6] was 297 ng/mL.

B8: 465: LC of anti-S1 antibody with a C-terminal fusion of a scFv of P043.A.00017.E07 (bispecific antibody)
heavy: QMQLVQSGTEVKKPGESLKISCKGSGYGFITYWIGWVRQMPGKGLEWMGIIYPGDSETRYSPSFQGQVTISADKSINTAYLQWSSLKASDTAIYYCAGGSGISTPMDVWGQGTTVTVASTKGPSVFPLAPSSKSTSGGTAALGCLVKDYFPEPVTVSWNSGALTSGVHTFPAVLQSSGLYSLSSVVTVPSSSLGTQTYICNVNHKPSNTKVDKRVEPKSCDKTHTCPPCPAPEAAGGPSVFLFPPKPKDTLMISRTPEVTCVVVDVSHEDPEVKFNWYVDGVEVHNAKTKPREEQYNSTYRVVSVLTVLHQDWLNGKEYKCKVSNKALPAPIEKTISKAKGQPREPQVYTLPPSREEMTKNQVSLTCLVKGFYPSDIAVEWESNGQPENNYKTTPPVLDSDGSFFLYSKLTVDKSRWQQGNVFSCSVLHEALHSHYTQKSLSLSPGK
light: not shown
B8 gave an IC50 (pVNT, infected cells/16 fields) [7] of 0.21 ng/ml and an IC90 (pVNT, infected cells/16 fields) [7] of 1.05 ng/ml.

B9: 467: LC of anti-S1 antibody with a C-terminal fusion of a scFv of P043.A.00024.C11 (bispecific antibody)
heavy: QMQLVQSGTEVKKPGESLKISCKGSGYGFITYWIGWVRQMPGKGLEWMGIIYPGDSETRYSPSFQGQVTISADKSINTAYLQWSSLKASDTAIYYCAGGSGISTPMDVWGQGTTVTVASTKGPSVFPLAPSSKSTSGGTAALGCLVKDYFPEPVTVSWNSGALTSGVHTFPAVLQSSGLYSLSSVVTVPSSSLGTQTYICNVNHKPSNTKVDKRVEPKSCDKTHTCPPCPAPEAAGGPSVFLFPPKPKDTLMISRTPEVTCVVVDVSHEDPEVKFNWYVDGVEVHNAKTKPREEQYNSTYRVVSVLTVLHQDWLNGKEYKCKVSNKALPAPIEKTISKAKGQPREPQVYTLPPSREEMTKNQVSLTCLVKGFYPSDIAVEWESNGQPENNYKTTPPVLDSDGSFFLYSKLTVDKSRWQQGNVFSCSVLHEALHSHYTQKSLSLSPGK
light: not shown
B9 showed an IC50 (pVNT, infected cells/16 fields) [7] of 0.46 ng/ml, an IC90 (pVNT, infected cells/16 fields) [7] of 1.42 ng/ml and an IC50 (pVNT, infected cells/16 fields) [8] of 0.4 µg/ml. The IC90 (pVNT, infected cells/16 fields) [8] was 1.19 µg/ml.
